Measurements: US20220169728A1 (AB THERAPEUTICS, published 2022)
Residue numbers refer to the chain shown, from its start. Names may count otherwise. One block for each binder: values may come before it.

Experiments:
[1] = target: T1, CD55 (UniProt P08174 35-353, limits assumed); assay: binding at 5 µg/ml, the baseline itself; format not stated
T1 construct: whole, on cells; also called CD55 on Rituximab resistant Raji cells (RRCL)
T1 sequence (looked up): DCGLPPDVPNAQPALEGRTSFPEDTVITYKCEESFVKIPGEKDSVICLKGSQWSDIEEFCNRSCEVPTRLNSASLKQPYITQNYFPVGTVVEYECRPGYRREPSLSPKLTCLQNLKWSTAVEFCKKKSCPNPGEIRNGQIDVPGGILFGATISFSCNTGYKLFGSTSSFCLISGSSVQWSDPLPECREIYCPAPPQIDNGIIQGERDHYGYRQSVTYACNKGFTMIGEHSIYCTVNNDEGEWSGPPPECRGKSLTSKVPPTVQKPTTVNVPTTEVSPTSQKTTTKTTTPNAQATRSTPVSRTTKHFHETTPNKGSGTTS

[2] = target: T1, CD55; assay: binding at 5 µg/ml against the unmutated antibody (SEQ ID NO: 14 + 15); format not stated
[3] = target: PD-L1 (UniProt Q9NZQ7 19-290, limits assumed); assay: flow cytometry binding to MDA231 cells, Cy3 goat anti-human IgG detection
Description: (§1) a) MDA231 cells are prepared in media at a concentration of 1×10⁶ cells/mL. [0411] b) Dilute antibody sample to an appropriate concentration. [0412] c) Transfer 50 μL, of cells into each well of 96 well V-bottom plate. [0413] d) Transfer 50 μL, of antibodies into wells of 96 well V-bottom plate. [0414] e) Incubate cell mixture for 60 min at room temperature. [0415] f) Spin cells down and wash twice with FACS buffer. [0416] g) Re-suspend cells in 100 μL, FACS buffer containing Cy3 conjugated goat anti-human (GAH) IgG (1:500) in each well. [0417] h) Incubate at room temperature for 30 min, and wash with FACS buffer×2.

[4] = target: T1, CD55; assay: as above
Description: as §1

[5] = target: T2, CD20 (UniProt P11836 1-297, limits assumed); assay: flow cytometry binding to CD20+ Raji cells, antibody titration, Cy3 goat anti-human IgG detection
T2 construct: whole, on cells; also called CD20 on Raji cells
T2 sequence (looked up): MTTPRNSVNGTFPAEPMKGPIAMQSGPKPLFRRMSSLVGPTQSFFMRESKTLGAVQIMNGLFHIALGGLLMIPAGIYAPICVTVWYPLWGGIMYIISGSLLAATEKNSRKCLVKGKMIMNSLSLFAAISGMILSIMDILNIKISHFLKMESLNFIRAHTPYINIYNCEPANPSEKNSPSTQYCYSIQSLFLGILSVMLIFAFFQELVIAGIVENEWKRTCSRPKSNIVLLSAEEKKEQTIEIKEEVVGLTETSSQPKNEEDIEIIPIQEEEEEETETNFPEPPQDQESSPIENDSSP

[6] = target: T3, CD3 (Homo sapiens (Human), UniProt P07766 23-207; P04234 22-171; P09693 23-182); assay: flow cytometry binding to CD3+ Jurkat cells, antibody titration, Cy3 goat anti-human IgG detection
T3 construct: also called CD3 on Jurkat cells
T3 sequence (P07766 23-207 limits assumed, chain 1 of 3): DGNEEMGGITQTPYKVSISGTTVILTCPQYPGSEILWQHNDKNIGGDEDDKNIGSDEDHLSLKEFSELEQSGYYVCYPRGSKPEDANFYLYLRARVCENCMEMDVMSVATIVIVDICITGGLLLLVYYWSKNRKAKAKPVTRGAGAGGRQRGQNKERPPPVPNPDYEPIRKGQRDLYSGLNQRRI
T3 sequence (P04234 22-171 limits assumed, chain 2 of 3): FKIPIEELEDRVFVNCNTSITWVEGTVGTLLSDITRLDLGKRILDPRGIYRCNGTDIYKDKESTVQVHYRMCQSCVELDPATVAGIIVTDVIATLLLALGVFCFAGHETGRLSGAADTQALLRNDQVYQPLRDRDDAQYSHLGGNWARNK
T3 sequence (P09693 23-182 limits assumed, chain 3 of 3): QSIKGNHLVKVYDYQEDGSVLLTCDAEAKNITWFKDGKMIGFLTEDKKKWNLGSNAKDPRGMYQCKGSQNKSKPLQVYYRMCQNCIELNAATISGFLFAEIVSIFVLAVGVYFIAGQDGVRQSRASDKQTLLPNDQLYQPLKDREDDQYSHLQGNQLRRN

Chain of PD-L1 (Q9NZQ7 19-290 limits assumed): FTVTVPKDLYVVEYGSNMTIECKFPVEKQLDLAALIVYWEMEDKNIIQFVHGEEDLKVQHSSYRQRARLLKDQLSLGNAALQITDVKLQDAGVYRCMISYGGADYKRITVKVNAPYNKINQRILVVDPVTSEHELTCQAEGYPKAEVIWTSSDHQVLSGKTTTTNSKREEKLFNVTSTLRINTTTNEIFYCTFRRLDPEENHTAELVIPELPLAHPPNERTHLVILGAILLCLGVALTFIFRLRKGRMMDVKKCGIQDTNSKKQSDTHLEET

Function remaining percentage (5 µg/ml) [1]: 100%
B1: parental anti-CD55 antibody (CD55 wt), monoclonal antibody having CD55VH (SEQ ID NO: 14 without any mutations) and the VL (SEQ ID NO: 15) (antibody, V domains shown)
VH: QVKLQESGGGLVQPGGSLKLSCAASGFTFSGYGMSWIRQTPDKRLEWVATINSGGSYTYYSDSVKGRFTISRDNVKNTLYLQMSSLKSEDTAMYYCARRNGTLYYYLMDYWGRGTLVTVSS
VL: QSVLTQPPSASGSPGQSVTISCTGTSSDVGGYNYVSWYQQHPGKAPKFMIYDVSKRPSGVSNRFSGSKSGNTASLTISGVQAEDEADYYCSSYTSASTVIFGGGTKLTVL
notes: Variable domains derived from a CD55 scFv; also called CD55VH + VL; CD55 parental Ab

Function remaining percentage (5 µg/ml) [2]: 17%
B2: anti-CD55 antibody with CD55VH (SEQ ID NO: 14) T102G and VL (SEQ ID NO: 15) (antibody, V domains shown)
VH: B1 VH with T102G
VL: B1 VL
notes: also called Test 27

Function remaining percentage (5 µg/ml) [2]: 98%
B3: anti-CD55 antibody with CD55VH (SEQ ID NO: 14) T102M and VL (SEQ ID NO: 15) (antibody, V domains shown)
VH: B1 VH with T102M
VL: B1 VL
notes: also called Test 26

binding result [3]: binds
B4: Anti-PD-L1 homodimer IgG (PD-L1 v1) containing the designed VH sequence (SEQ ID NO: 4) and the common VL sequence (SEQ ID NO: 6) (antibody, V domains shown)
VH: EVQLLESGGGLVEPGGSLRLSCAASGFTFSSYIMMWVRQAPGKGLEWVSSIYPSGGITFYADTVKGRFTISRDNSKNTLYLQMNSLRAEDTAVYYCARIKLGTVTTVDYWGEGTLVTVSS
VL: QSALTQPASVSGSPGQSITISCTGTSSDVGGYNYVSWYQQHPGKAPKLMIYDVSKRPSGVSNRFSGSKSGNTASLTISGLQAEDEADYYCSSYTSASTRIFGGGTKVTVLR
notes: Homodimer IgG; also called PDL1 homodimer version 1

binding result [4]: binds
B5: Anti-CD55 homodimer IgG (CD55 v1) containing the designed VH sequence (SEQ ID NO: 5) and the common VL sequence (SEQ ID NO: 6) (antibody, V domains shown)
VH: B1 VH with Q13K, D42G
VL: B4 VL
notes: Homodimer IgG; also called CD55 homodimer version 1

EC50 (read off the curve) [5]: ~0.2 µg/mL
binding result [6]: no binding (tested: 10 µg/ml)
B6: parental anti-CD20 IgG (Parental CD20) (antibody, V domains shown)
VH: QVQLQQPGAELVKPGASVKMSCKASGYTFTSYNMHWVKQTPGRGLEWIGAIYPGNGDTSYNQKFKGKATLTADKSSSTAYMQLSSLTSEDSAVYYCARSTYYGGDWYFNVWGAGTTVTVSA
VL: QIVLSQSPAILSASPGEKVTMTCRASSSVSYIHWFQQKPGSSPKPWIYATSNLASGVPVRFSGSGSGTSYSLTISRVEAEDAATYYCQQWTSNPPTFGGGTKLEIKR
notes: IgG; also called Rituximab; CD20 parental Ab

binding result [5]: no binding (tested: 10 µg/ml)
B7: parental anti-CD3 IgG (Parental CD3) (antibody, V domains shown)
VH: QVQLQQSGAELARPGASVKMSCKASGYTFTSYTMHWVKQRPGQGLEWIGYINPSSGYTKYNQKFKDKATLTADKSSSTAYMQLSSLTSEDSAVYYCARWQDYDVYFDYWGQGTTLTVSS
VL: B6 VL with I32M, F35Y, V59A, T91S, I105T
notes: IgG; also called MAb 12F6; CD3 parental Ab

binding result [5]: no binding (tested: 10 µg/ml)
B8: CD3 homodimer IgG containing the designed VH sequence (SEQ ID NO: 2) and the common VL sequence (SEQ ID NO: 3) (antibody, V domains shown)
VH: B7 VH with Q1E, Q6E, Q43E, Q82E, Q111E
VL: B6 VL
notes: IgG homodimer with two VHb and two common VL; also called redesigned 12F6; antibody B

EC50 (read off the curve) [5]: ~0.4 µg/mL
binding result [6]: no binding (tested: 10 µg/ml)
B9: CD20 homodimer IgG containing the designed VH sequence (SEQ ID NO: 1) and the common VL sequence (SEQ ID NO: 3) (antibody, V domains shown)
VH: B6 VH with T87R
VL: B6 VL
notes: IgG homodimer with two VHa and two common VL; also called redesigned Rituximab; antibody A
